Source: US20240117010A1 (NAVIGO PROTEINS, published 2024)

B1: 212434 (SEQ ID NO: 1) (designed binder)
chain: NAAVLDIAQHSATEEIWWLPNLTKQQKVWFIMSLTQDPSVSKEVLGEAQKLNDSQAPK
B2: 212522 (SEQ ID NO: 19) (designed binder)
chain: IAAKFDEAQQAAFYEILHLPNLTELQRNWFIQLLRDDPSVSLQVLGHAQYLNDSQAPKIAAKFDEAQQYAFYQILHLHNLTEEQRNAFIQSLRDDPSVSHEVLGEAKKLNESQAPK

Assays:
[1] = target: SARS-CoV2 RBD (receptor binding domain of the spike protein) (SARS-Cov-2, UniProt P0DTC2 319-541)
[2] = target: SARS-CoV2 S1 protein (S1 domain of the spike protein) (SARS-Cov-2, UniProt P0DTC2 16-685)

Binder | Kd [1] | Kd [2]
B1 | 10.2 nM | 3.8 nM
B2 | 27.1 nM | 24.1 nM
